Experimental data from patent US11098109B2, “Single-chain variable fragment anti-CD133 antibodies and uses thereof” (REGENTS OF THE UNIVERSITY OF MINNESOTA, priority 2010, dated 2021).

Legend:
CD133 [1] = molecular target: T1, CD133 (Homo sapiens, UniProt O43490); assay: Immunohistochemistry of human glioma and kidney tissue sections; format: binding
T1 construct: endogenous in cells
T1 sequence (O43490 20-865): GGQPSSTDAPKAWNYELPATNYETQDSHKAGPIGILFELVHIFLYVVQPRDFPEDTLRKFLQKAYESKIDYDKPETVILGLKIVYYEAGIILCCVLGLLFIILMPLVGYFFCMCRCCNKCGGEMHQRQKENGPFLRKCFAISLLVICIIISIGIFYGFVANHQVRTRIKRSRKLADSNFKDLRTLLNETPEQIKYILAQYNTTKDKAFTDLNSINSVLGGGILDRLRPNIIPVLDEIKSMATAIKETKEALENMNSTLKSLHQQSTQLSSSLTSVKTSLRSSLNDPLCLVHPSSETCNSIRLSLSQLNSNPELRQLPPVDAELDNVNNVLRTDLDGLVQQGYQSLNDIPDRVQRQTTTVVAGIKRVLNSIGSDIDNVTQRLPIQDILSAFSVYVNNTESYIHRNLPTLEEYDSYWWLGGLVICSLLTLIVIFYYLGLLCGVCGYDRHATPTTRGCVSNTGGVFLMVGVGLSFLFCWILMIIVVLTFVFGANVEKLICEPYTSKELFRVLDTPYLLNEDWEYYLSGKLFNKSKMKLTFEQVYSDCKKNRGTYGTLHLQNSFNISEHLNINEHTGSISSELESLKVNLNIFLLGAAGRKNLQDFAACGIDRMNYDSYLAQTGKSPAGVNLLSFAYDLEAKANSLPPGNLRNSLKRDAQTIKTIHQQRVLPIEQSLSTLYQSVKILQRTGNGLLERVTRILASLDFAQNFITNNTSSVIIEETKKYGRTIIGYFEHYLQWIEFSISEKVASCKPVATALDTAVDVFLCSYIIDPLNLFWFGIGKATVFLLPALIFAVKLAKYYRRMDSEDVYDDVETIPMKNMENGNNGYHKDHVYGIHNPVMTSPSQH
Experimental: 5 μm paraffin sections of human kidney or glioblastoma tissue were mounted onto charged slides. The sections were deparaffinized and rehydrated using standard methods, rinsed in running tap-water and placed in a PBS bath for five minutes. The slides were then incubated in a pre-heated steamer bath with staining dish containing EDTA buffer (pH 8.0) for 30 minutes and then cooled for 20 minutes. The slides were washed with PBS (pH 7.4) for minimum of five minutes and then subjected to following incubation steps: blocking with serum-free background Sniper (Biocare Medical. Concord, Calif.), primary antibody at a 1:200 dilution of hybridoma supernatant at 4° C. overnight, Leica Bond post primary. Leica Bond polymer, and DAB chromagen developer. The sections were rinsed well, counterstained with hematoxylin, dehydrated, sealed with a cover slip and imaged.

CD133 [2] = molecular target: T1, CD133; assay: Flow cytometry specificity test on U87, CD133-transfected U87, Caco-2 and GBM6 cells; format: binding
Experimental: FIG. 3: Specificity of antibody produced by Hybridoma Clone 7. (A) Flow cytometry. Cells were incubated with primary antibody from either Hybridoma Clone 7 or 293C3 (Militenyi), followed by incubation with a labeled secondary antibody, and then analyzed by flow cytometry. Antibody from the newly developed anti-CD133 Hybridoma Clone 7 (open black histogram) stains very specifically the CD133-overexpressing cells, Caco-2 (iii), GBM6 (iv) and U87 cells transfected with CD133 (ii) but not CD133 negative U87 cells (i). Immunostaining using the monoclonal antibody produced by Hybridoma Clone 7 is compared to clone 293C3 (open grey histogram). Isotype control is represented by solid grey histogram. (B) Tunicamycin mediated glycosylation inhibition. Caco-2 cells were treated with increasing doses of tunicamycin (2.5, 5, 10, 20 μg/ml) for 3 days. DMSO treated cells or untreated cells served as controls. Cells were lysed and then analyzed by Western blotting using the monoclonal antibody produced by Hybridoma Clone 7 or GAPDH antibodies.
CD133-IRES GFP or CMV GFP constructs were transfected into U87 cells using FuGENE HD transfection reagent according to the manufacturer's instructions. Briefly, cells were plated in a 10 cm dish. Twelve hours later, 10 μg of the pDNA was diluted in serum-free growth DMEM and mixed with 40 μl of the transfection reagent. Following incubation for 15 minutes, the transfection mix was added to the cells. Forty-eight hours later, cells were harvested using non-enzymatic cell dissociation buffer (Sigma-Aldrich Corp., St. Louis, Mo.) for flow cytometry.
Primary human glioblastoma GBM6 cells, U87, or Caco-2 cells were washed three times and suspended in 100 μl of PBS. […] Cells were further incubated with 10 μl of anti-mouse hylite 647 (1:40 dilution; American Qualex, San Clemente, Calif.) for 30 minutes at 4° C., washed three times, and analyzed by flow cytometry.

CD133^+ Caco-2 cells = assay: Immunofluorescence of fixed Caco-2 cells with hybridoma supernatants; format: binding, human; conditions: hybridoma supernatant
Experimental: FIG. 2: Analysis of the newly generated CD133 hybridoma. Supematants of hybridoma clones were tested as a primary antibody in western blot (A) and Immunofluorescence (B) assays. Pre-immunized serum (-ve) or post immune anti sera (a.s.) served as controls. For western blot, Caco-2 lysates normalized for protein concentration were loaded onto a SDS-PAGE gel, resolved, blotted onto a nitrocellulose membrane and cut into strips. Each strip was probed with supernatant from the identified hybridoma. Membrane in Lane 1 was probed with a commercially available antibody (ab 19898, Abcam) and served as an additional positive control. For immunofluorescence, Caco-2 cells were fixed and immunostained with the hybridoma supernatants. A commercially available antibody (293C3, Militenyi) was used as additional positive control. Scale bars in the panel represent 200 micrometers. Supernatant of Hybridoma Clone 7 was used in the immunohistochemical analysis of primary glioblastoma and kidney tissue (C).
Caco-2 cells were plated in 16-well chamber slides. After four days of growth, the cells were fixed with 4% paraformaldehyde, washed in DPBS and then incubated in 200 mM glycine for 10 minutes. The cells were then blocked with a solution of 0.5% BSA and 0.2% gelatin in PBS for 10 minutes. […] The cells were further washed with PBS and then visualized under a fluorescence microscope. […]

B1: Hybridoma Clone 7: monoclonal antibody produced by Hybridoma Clone 7 that specifically binds to human CD133 (antibody, V domains shown)
VL: DIVLSQSPAIMSASPGEKVTISCSASSSVSYMYWYQQKPGSSPKPWIYRTSNLASGVPARFSGSGSGTSYSLTISSMEAEDAATYYCQQYHSYPPTFGAGTKLELK
VH: LEVKLVESGPELKKPGETVKISCKASGYTFTDYSMHWVNQAPGKGLKWMGWINTETGEPSYADDFKGRFAFSLETSASTAYLQINNLKNEDTATYFCATDYGDYFDYWGQGTTLTVSS
With B1 the immunohistochemical staining (CD133 [1]) was “membrane-specific staining”, the “flow cytometry staining of non-transfected U87 cells” value (CD133 [2]; CD133^low/- U87 cells) was “did not appreciably stain” and the “flow cytometry staining of cells that endogenously express CD133” value (CD133 [2]; Caco-2 and GBM6 cells) was “able to immunostain”. For the same molecule, the “flow cytometry staining of CD133-transfected U87 cells” value (CD133 [2]; U87 transfected with human CD133 cDNA) was “labeled CD133-transfected cells” and the “immunofluorescence staining of the Caco-2 cell membrane” value (CD133^+ Caco-2 cells) was “robustly stained”.
